Where two headings read alike, the source gives them in different places. Square brackets hold non-standard residues; d marks the D form. Ends that are not written are not given here. * marks the point of attachment. FITC = O=C1OC2(c3ccc(O)cc3Oc3cc(O)ccc32)c2ccc(NC(=S)*)cc21; pS = N[C@@H](COP(=O)(O)O)C(=O)O
T1: 14-3-3η (purified, recombinant) (UniProt Q04917 1-246)
T1 chain: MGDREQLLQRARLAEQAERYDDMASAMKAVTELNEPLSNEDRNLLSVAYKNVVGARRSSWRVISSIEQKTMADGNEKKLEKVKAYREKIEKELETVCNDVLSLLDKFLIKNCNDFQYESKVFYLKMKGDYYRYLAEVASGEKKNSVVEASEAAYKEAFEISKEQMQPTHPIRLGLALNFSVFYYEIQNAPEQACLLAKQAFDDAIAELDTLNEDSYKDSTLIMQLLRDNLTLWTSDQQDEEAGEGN

T2: 14-3-3θ (purified, recombinant) (UniProt P27348 1-245)
T2 chain: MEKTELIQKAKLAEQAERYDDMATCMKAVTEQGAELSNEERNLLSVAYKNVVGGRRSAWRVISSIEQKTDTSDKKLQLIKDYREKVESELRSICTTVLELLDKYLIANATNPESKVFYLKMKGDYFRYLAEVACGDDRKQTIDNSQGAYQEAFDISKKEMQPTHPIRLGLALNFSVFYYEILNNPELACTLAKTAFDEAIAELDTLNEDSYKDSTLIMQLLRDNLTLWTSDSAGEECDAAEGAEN


Experiments:
Test in all cases: FP
[1] = target: T1, 14-3-3η (purified, recombinant)
[2] = target: T2, 14-3-3θ (purified, recombinant)
[3] = target: T1, 14-3-3η (purified, recombinant)
[4] = target: T2, 14-3-3θ (purified, recombinant)

Binder | Kd [1] | Kd [2] | Kd [3] | Kd [4]
{FITC}-RSRTP[pS]LPTPPTR [Tau^209-221 p-S214] | 21 µM | 90.9 µM |  | 
{FITC}-RPRSR[pS]LSPGRSP [MAST1^156-168 p-S161] |  |  | 3.6 µM | 10.7 µM
{FITC}-DGRRW[pS]LASLPSS [MAST1^85-97 p-S90] |  |  | 12.3 µM | 23.7 µM

— article PMC13598245 (2026)
